According to US20030077800A1 (HORMOS MEDICAL, published 2003):

What was measured:
[1] = molecular target: rat androgen receptor expressed from pSG-rAR (rat) (UniProt P15207); experiment: cell-based or functional assay
[2] = molecular target: T1, LexA-HLBD (amino acids 624-919 of AR) (UniProt P10275 624-919); experiment: cell-based or functional assay
T1 sequence (looked up): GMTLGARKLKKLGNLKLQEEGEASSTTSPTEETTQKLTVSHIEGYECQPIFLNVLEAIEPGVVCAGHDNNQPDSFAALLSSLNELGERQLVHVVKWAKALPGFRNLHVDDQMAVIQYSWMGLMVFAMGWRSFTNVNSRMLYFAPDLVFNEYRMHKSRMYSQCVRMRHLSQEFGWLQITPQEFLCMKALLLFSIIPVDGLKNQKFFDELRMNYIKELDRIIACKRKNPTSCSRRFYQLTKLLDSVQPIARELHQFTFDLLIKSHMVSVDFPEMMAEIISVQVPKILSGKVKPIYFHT

[3] = molecular target: T2, LexA-AR ZFR (AR amino acids 554-644) (human, UniProt P10275 554-644); experiment: cell-based or functional assay
T2 sequence (looked up): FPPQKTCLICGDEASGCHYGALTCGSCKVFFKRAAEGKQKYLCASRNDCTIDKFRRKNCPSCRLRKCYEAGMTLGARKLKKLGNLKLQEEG

[4] = molecular target: T3, rat AR (amino acids 3-902) fused to the DBD of Gal4 (Gal4-AR) (rat, UniProt P04386 1-147; P15207 3-902); experiment: mammalian two-hybrid in CV-1 cells, pG5LUC reporter
T3 construct: domain: DBD;range 3-902; Mammalian two-hybrid bait in CV-1 cells; also called Gal-AR

Sequence of rat androgen receptor expressed from pSG-rAR (rat) (P15207 whole entry S389L, the tested form may be a part): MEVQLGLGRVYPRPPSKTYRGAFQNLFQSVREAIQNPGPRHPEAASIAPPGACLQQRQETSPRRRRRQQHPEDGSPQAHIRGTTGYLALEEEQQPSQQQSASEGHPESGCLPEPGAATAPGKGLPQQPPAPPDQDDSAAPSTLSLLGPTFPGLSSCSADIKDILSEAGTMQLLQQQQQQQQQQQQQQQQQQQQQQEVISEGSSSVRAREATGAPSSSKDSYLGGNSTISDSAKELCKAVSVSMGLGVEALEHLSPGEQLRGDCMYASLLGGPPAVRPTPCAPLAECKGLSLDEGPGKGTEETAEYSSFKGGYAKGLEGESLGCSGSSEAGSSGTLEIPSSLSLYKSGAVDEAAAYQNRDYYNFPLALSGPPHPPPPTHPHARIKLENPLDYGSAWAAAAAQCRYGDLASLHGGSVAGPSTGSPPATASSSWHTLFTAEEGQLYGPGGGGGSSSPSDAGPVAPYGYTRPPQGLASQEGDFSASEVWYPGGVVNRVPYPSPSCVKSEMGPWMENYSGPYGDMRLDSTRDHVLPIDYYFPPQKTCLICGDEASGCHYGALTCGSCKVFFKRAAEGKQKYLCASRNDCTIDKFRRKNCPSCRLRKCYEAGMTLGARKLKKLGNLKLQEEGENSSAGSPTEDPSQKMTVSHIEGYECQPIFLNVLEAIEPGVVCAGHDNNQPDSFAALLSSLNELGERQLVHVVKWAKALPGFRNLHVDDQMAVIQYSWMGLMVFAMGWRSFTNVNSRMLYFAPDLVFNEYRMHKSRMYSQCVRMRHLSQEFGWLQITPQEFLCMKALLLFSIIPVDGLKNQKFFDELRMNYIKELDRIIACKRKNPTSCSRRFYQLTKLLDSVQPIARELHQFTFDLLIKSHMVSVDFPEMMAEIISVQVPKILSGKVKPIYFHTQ

Molecule: FLAG-tagged ARIP4 (pFLAG-ARIP4) (from UniProt Q99NG0 1-1467)
- AR activity on the probasin promoter (pPB(-285/+32)-LUC, COS-1 cells) (% of that of AR alone) [1]: 50 to 60
- transcriptional activity of AR on a minimal promoter (ARE4-tk-LUC, COS-1 cells) [1]: 3 fold

B1: VP16 AD fused to ARIP4 (amino acids 86-227) (VP16 AD-ARIP4 ID) (other)
chain: RHQGKILASEDPKKKRAQKPSHMRRNIRKLLREDQLEPVTKAAQQEELERRKRLEQQRKEYAAPIPTVPLEFLPEEIVLRASDGPQLPPRVLAQEVICLDSSSGSEDEKSSRDEVIELSSGEEDTLHIVDSSESVSEEDEEE
- reporter gene activity (beta-galactosidase, yeast two-hybrid, with androgen) [2]: 4 fold
- reporter gene activity (beta-galactosidase, yeast two-hybrid) [3]: ~100 fold

B2: VP16-ODC fusion protein (human ornithine decarboxylase fused to VP16 AD) (other)
chain: MNNFGNEEFDCHFLDEGFTAKDILDQKINEVSSSDDKDAFYVADLGDILKKHLRWLKALPRVTPFYAVKCNDSKAIVKTLAATGTGFDCASKTEIQLVQSLGVPPERIIYANPCKQVSQIKYAANNGVQMMTFDSEVELMKVARAHPKAKLVLRIATDDSKAVCRLSVKFGATLRTSRLLLERAKELNIDVVGVSFHVGSGCTDPETFVQAISDARCVFDMGAEVGFSMYLLDIGGGFPGSEDVKLKFEEITGVINPALDKYFPSDSGVRIIAEPGRYYVASAFTLAVNIIAKKIVLKEQTGSDDEDESSEQTFMYYVNDGVYGSFNCILYDHAHVKPLLQKRPKPDEKYYSSSIWGPTCDGLDRIVERCDLPEMHVGDWMLFENMGAYTVAAASTFNGFQRPTIYYVMSGPAWQLMQQFQNPDFPPEVEEQDASTLPVSCAWESGMKRHRAACASASINV
notes: Negative control in the mammalian two-hybrid assay; also called human ODC
- binding result [4]: no binding
